Laboratory results from PMC3395085.
Read-outs that look alike come from different tables or passages of the source.

Assays:
Assay in all cases: X-ray crystallography
PFV integrase (IN) [1] = target: T1, PFV integrase (IN) (prototype foamy virus, UniProt P14350 752-1143)
PFV integrase (IN) [2] = target: T1, PFV integrase (IN); remark: listed apart in the source
PFV integrase (IN) [3] = target: T1, PFV integrase (IN); remark: listed apart in the source

B1: unprocessed U5 viral DNA end, 19 bp (N:r) (dsDNA)
DNA 1: TGCGAAATTCCATGACAAT
DNA 2: ATTGTCATGGAATTTCGCA
- binding result (PFV integrase (IN) [1]): binds

B2: 3'-processed viral DNA end (R:N, 17/19-mer), formed in crystallo (dsDNA)
DNA 1: TGCGAAATTCCATGACA
DNA 2: ATTGTCATGGAATTTCGCA
- binding result (PFV integrase (IN) [2]): binds

B3: unprocessed U5 viral DNA end, 5'-phosphate on nonreactive strand (dsDNA)
DNA 1: TGCGAAATTCCATGACAAT
DNA 2: ATTGTCATGGAATTTCGCA
modifications: 5'-phosphate on strand 2 (nonreactive)
- binding result (PFV integrase (IN) [3]): binds
